The values below come from paper PMC7949130, “Defective binding of SPINK1 variants is an uncommon mechanism for impaired trypsin inhibition in chronic pancreatitis” (The Journal of Biological Chemistry, 2021).

Residue numbers refer to the chain shown, from its start. Names may count otherwise.

What all share (details): both partners purified
In experiment [1] the target is T1, nonsulfated human anionic trypsin purified from the conditioned medium of transfected HEK 293T cells (human, UniProt P07478 24-247).
T1 construct: human anionic trypsin, the active enzyme cut from anionic trypsinogen (Hu2) by enteropeptidase; Sulfation prevented by sodium chlorate; also called Hu2 (HEK 293T); source: HEK 293T, transfected, grown with 50 mM sodium chlorate
T1 sequence (P07478 24-247): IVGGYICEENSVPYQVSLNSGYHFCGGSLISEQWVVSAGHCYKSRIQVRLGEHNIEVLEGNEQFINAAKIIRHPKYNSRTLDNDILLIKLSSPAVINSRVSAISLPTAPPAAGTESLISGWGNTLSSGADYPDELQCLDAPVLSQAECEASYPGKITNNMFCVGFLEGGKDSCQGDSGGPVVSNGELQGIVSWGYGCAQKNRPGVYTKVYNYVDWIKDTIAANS
Description: equilibrium binding assay (free trypsin activity on a fluorogenic substrate); fixed trypsin incubated with increasing SPINK1, 0.2 ml, 0.1 M Tris-HCl (pH 8.0), 150 mM NaCl, 1 mM CaCl2, 0.05% Tween 20, 15 h; free trypsin measured with Z-Gly-Pro-Arg-AMC; apparent KD, global fit of at least three experiments.

In experiment [2] the target is T2, sulfated human anionic trypsin purified from the conditioned medium of transfected HEK 293T cells (human, UniProt P07478 24-247, sulfated on Tyr154).
T2 construct: human anionic trypsin, the active enzyme cut from anionic trypsinogen (Hu2) by enteropeptidase; also called Hu2-SO4 (HEK 293T); source: HEK 293T, cotransfected with tyrosylprotein sulfotransferase 2
T2 sequence (P07478 24-247): as above
The description is as above.

The target in experiment [3] is T3, native sulfated human anionic trypsin purified from pancreatic juice (human, UniProt P07478 24-247, sulfated on Tyr154).
T3 construct: human anionic trypsin, the active enzyme cut from anionic trypsinogen by enteropeptidase; also called Hu2-SO4 (native); Hu2-SO4
T3 sequence (P07478 24-247): as above
Description: KD calculated from the rate constants (association and dissociation rate assays); KD(calc): equilibrium dissociation constant calculated from kon and koff of the activity-based rate assays.

Experiment [4] addresses T4, nonsulfated human anionic trypsin purified from E. coli (human, UniProt P07478 24-247).
T4 construct: human anionic trypsin, the active enzyme cut from anionic trypsinogen (Hu2) by enteropeptidase; Not sulfated on Tyr154; also called Hu2 (E. coli); Hu2
Described as above.

The target of experiment [5] is T3, native sulfated human anionic trypsin …. The experiment can be described thus: dissociation rate assay (recovery of trypsin activity after dilution of the complex); complex of 11 nM SPINK1 and 10 nM trypsin formed for 1 h at 23 °C, diluted to 50-200 pM with 0.6 mM Z-Gly-Pro-Arg-AMC, 0.1 M Tris-HCl (pH 8.0), 150 mM NaCl, 1 mM CaCl2, 0.05% Tween 20, room temperature, followed for 1 h.

The target of experiment [6] is T4, nonsulfated human anionic trypsin …. The experiment is described as above.
In experiment [7] the target is T3, native sulfated human anionic trypsin …. Description: discontinuous association rate assay (residual trypsin activity); 50 pM trypsin mixed with 500 pM SPINK1, 0.1 M Tris-HCl (pH 8.0), 150 mM NaCl, 1 mM CaCl2, 0.05% Tween 20, 23 °C; kon from the pseudo-first-order rate constant divided by the inhibitor concentration.
For experiment [8], the target named is T4, nonsulfated human anionic trypsin …. The experiment is described as above.
Experiment [9] deals with T3, native sulfated human anionic trypsin …. The experiment can be described thus: equilibrium binding assay (free trypsin activity on a fluorogenic substrate); fixed trypsin incubated with increasing SPINK1, 0.2 ml, 0.1 M Tris-HCl (pH 8.0), 150 mM NaCl, 1 mM CaCl2, 0.05% Tween 20, 15 h; free trypsin measured with Z-Gly-Pro-Arg-AMC; apparent KD, global fit of at least three experiments.

The target of experiment [10] is T4, nonsulfated human anionic trypsin …. The experiment is described as above.
The target in experiment [11] is T3, native sulfated human anionic trypsin …. The description is as above. This is another data set of the same source.
The target is the same in experiment [12]. The experiment can be described thus: equilibrium binding assay (free trypsin activity on a fluorogenic substrate); as the equilibrium assay but K41N SPINK1 incubated with trypsin for 1 h; 0.1 M Tris-HCl (pH 8.0), 150 mM NaCl, 1 mM CaCl2, 0.05% Tween 20; apparent KD.
The target is the same in experiment [13]. Description: equilibrium binding assay; equilibrium dissociation constant of ecotin on human trypsins, 15 h of incubation; further conditions not told for ecotin.
Experiment [14] concerns the target T4, nonsulfated human anionic trypsin …. The experiment is described as above.

T4 sequence (P07478 24-247): as above

B1: serine protease inhibitor Kazal type 1 (SPINK1), wildtype, C-terminal 10His tag (natural protein, human, UniProt P00995 24-79, looked up)
chain: DSLGREAKCYNELNGCTKIYDPVCGTDGNTYPNECVLCFENRKRQTSILIQKSGPC
notes: expressed from the SPINK1-minigene-1 construct with its own signal peptide; Residue numbers start at the initiator methionine; source: HEK 293T, transfected, purified from conditioned medium (nickel-nitrilotriacetic acid cartridge); not shown: 10His, C-terminal, kept
As usually defined, the koff is the rate constant with which the complex falls apart. For orientation: kon means the second-order rate constant of association. Read a low kon as slow association. B1: the Kd in [1] was 0.0005 nM; in experiment [2] it was 0.009 nM; in experiment [3], 0.0075 nM; in [4] it was 0.0001 nM; in [9], 0.0367 nM; in experiment [10] it was 0.0003 nM. Besides, the koff in [5] worked out at 1.81e-05 s⁻¹; in experiment [6] it was 5e-07 s⁻¹. Further, the kon was 2.4e+06 M⁻¹ s⁻¹ in [7] and 3.8e+06 M⁻¹ s⁻¹ in [8].

B2: SPINK1 variant Q68R, C-terminal 10His tag (natural protein, human, UniProt P00995 24-79, looked up)
chain: B1 chain with Q45R
notes: also called SPINK1 Q68R; p.Q68R; source: HEK 293T, transfected, purified from conditioned medium (nickel-nitrilotriacetic acid cartridge); not shown: 10His, C-terminal, kept
In the case of B2, the Kd in [11] was 0.027 nM.

B3: SPINK1 variant N37S, C-terminal 10His tag (natural protein, human, UniProt P00995 24-79, looked up)
chain: B1 chain with N14S
notes: also called SPINK1 N37S; p.N37S; source: HEK 293T, transfected, purified from conditioned medium (nickel-nitrilotriacetic acid cartridge); not shown: 10His, C-terminal, kept
Regarding B3, the Kd in [11] was 0.0214 nM.

B4: SPINK1 variant K41N, C-terminal 10His tag (natural protein, human, UniProt P00995 24-79, looked up)
chain: B1 chain with K18N
notes: Its concentration was determined by SDS-PAGE and densitometry, not by active site titration; also called SPINK1 K41N; p.K41N; source: HEK 293T, transfected, purified from conditioned medium (nickel-nitrilotriacetic acid cartridge); not shown: 10His, C-terminal, kept
Turning to B4, the Kd in experiment [12] is 1150 nM.

B5: SPINK1 variant R65Q, C-terminal 10His tag (natural protein, human, UniProt P00995 24-79, looked up)
chain: B1 chain with R42Q
notes: also called SPINK1 R65Q; p.R65Q; source: HEK 293T, transfected, purified from conditioned medium (nickel-nitrilotriacetic acid cartridge); not shown: 10His, C-terminal, kept
B5: the Kd in experiment [11] came out at 0.006 nM.

B6: SPINK1 variant I42M, C-terminal 10His tag (natural protein, human, UniProt P00995 24-79, looked up)
chain: B1 chain with I19M
notes: also called SPINK1 I42M; p.I42M; source: HEK 293T, transfected, purified from conditioned medium (nickel-nitrilotriacetic acid cartridge); not shown: 10His, C-terminal, kept
B6: the Kd in [11] came out at 0.258 nM.

B7: SPINK1 variant P55S, C-terminal 10His tag (natural protein, human, UniProt P00995 24-79, looked up)
chain: B1 chain with P32S
notes: also called SPINK1 P55S; p.P55S; source: HEK 293T, transfected, purified from conditioned medium (nickel-nitrilotriacetic acid cartridge); not shown: 10His, C-terminal, kept
As to B7, in [11], the Kd was 0.123 nM.

B8: SPINK1 variant N34S, C-terminal 10His tag (natural protein, human, UniProt P00995 24-79, looked up)
chain: B1 chain with N11S
notes: also called SPINK1 N34S; p.N34S; source: HEK 293T, transfected, purified from conditioned medium (nickel-nitrilotriacetic acid cartridge); not shown: 10His, C-terminal, kept
Take B8: the Kd in [1] is 0.0008 nM; in [2], 0.0063 nM; in experiment [3], 0.0044 nM; in [4], 0.0001 nM; in experiment [9], 0.0167 nM; in experiment [10] it was 0.0004 nM. Further, the koff in [5] is 1.36e-05 s⁻¹; in [6], 4e-07 s⁻¹. Besides, the kon in [7] is 3.1e+06 M⁻¹ s⁻¹; in [8], 5.1e+06 M⁻¹ s⁻¹.

B9: ecotin (natural protein)
chain: not shown
notes: source: E. coli BL21(DE3), overexpressed, purified from the periplasm
B9: the Kd in experiment [13] was found to be 0.0195 nM; in experiment [14], 0.0032 nM.
